Measured values: publication PMC9828552

Assays:
purified protein [1] = substrate: O=CO; experiment: purified protein; settings: 3 mM NAD+, 25 mM potassium phosphate pH 7.5, 25 °C
purified protein [2] = substrate: C[C@H](N)C(=O)O; experiment: purified protein; settings: oxidative deamination, 1 mM NAD+, 100 mM NaHCO3 pH 10, 25 °C

B1: AlaDH-FDH-His fusion protein (FDH domain) ([Candida] boidinii) (protein)
chain: MKIVLVLYDAGKHAADEEKLYGCTENKLGIANWLKDQGHELITTSDKEGETSELDKHIPDADIIITTPFHPAYITKERLDKAKNLKLVVVAGVGSDHIDLDYINQTGKKISVLEVTGSNVVSVAEHVVMTMLVLVRNFVPAHEQIINHDWEVAAIAKDAYDIEGKTIATIGAGRIGYRVLERLLPFNPKELLYYDYQALPKEAEEKVGARRVENIEELVAQADIVTVNAPLHAGTKGLINKELLSKFKKGAWLVNTARGAICVAEDVAAALESGQLRGYGGDVWFPQPAPKDHPWRDMRNKYGAGNAMTPHYSGTTLDAQTRYAEGTKNILESFFTGKFDYRPQDIILLNGEYVTKAYGKHDKK
- Km (purified protein [1]): 7.8 ± 1.4 mM
- kcat (purified protein [1]): 0.7 s⁻¹

B2: WT FDH (CbFDH) ([Candida] boidinii) (protein)
chain: MKIVLVLYDAGKHAADEEKLYGCTENKLGIANWLKDQGHELITTSDKEGETSELDKHIPDADIIITTPFHPAYITKERLDKAKNLKLVVVAGVGSDHIDLDYINQTGKKISVLEVTGSNVVSVAEHVVMTMLVLVRNFVPAHEQIINHDWEVAAIAKDAYDIEGKTIATIGAGRIGYRVLERLLPFNPKELLYYDYQALPKEAEEKVGARRVENIEELVAQADIVTVNAPLHAGTKGLINKELLSKFKKGAWLVNTARGAICVAEDVAAALESGQLRGYGGDVWFPQPAPKDHPWRDMRNKYGAGNAMTPHYSGTTLDAQTRYAEGTKNILESFFTGKFDYRPQDIILLNGEYVTKAYGKHDKK
- Km (purified protein [1]): 5.0 ± 1.0 mM
- kcat (purified protein [1]): 1.3 s⁻¹

B3: AlaDH-FDH-His fusion protein (AlaDH domain) (Halomonas elongata DSM 2581) (protein)
chain: MKIAVPKEIKNHEYRVALTPSGARELVGRGHDVIVQAAAGEGAGFSDADFEAAGARLEADVAKLWDDAELILKVKEPQAEEVARLSAGQTLFTYLHLAAEESLTKGLLDSGATCIAYETITAPEGGLPLLAPMSTVAGRMAVQAGAHSLEKAQGGAGILLPGVPGVAPARVTVIGGGVVGENAARMALGLGAEVTVLDKSIPRLETLDDRYQGRMKTVFSTADALEEAVRESDLIIGAVLVPGAAAPKLITRDMLSDMKPGSVLVDVAIDQGGCFETSKPTTHAEPTYVVDGVVHYCVANMPGAVARTSTQALTNATLPFVVALADKGWQKALADDDHFAAGLNVHDGKLTYRAVAEAFGLEYVEAASLIG
- Km (purified protein [2]): 11.4 ± 1.5 mM
- kcat (purified protein [2]): 1.7 s⁻¹
